Test results: US20200087373A1 (UNIVERSITY OF COPENHAGEN, published 2020)
Ends that are not written are not given here. * marks the point of attachment. C16 diacid = O=C(O)CCCCCCCCCCCCCCC(=O)*

T1: human GIP receptor (human, UniProt P48546 22-466)
T1 sequence (looked up): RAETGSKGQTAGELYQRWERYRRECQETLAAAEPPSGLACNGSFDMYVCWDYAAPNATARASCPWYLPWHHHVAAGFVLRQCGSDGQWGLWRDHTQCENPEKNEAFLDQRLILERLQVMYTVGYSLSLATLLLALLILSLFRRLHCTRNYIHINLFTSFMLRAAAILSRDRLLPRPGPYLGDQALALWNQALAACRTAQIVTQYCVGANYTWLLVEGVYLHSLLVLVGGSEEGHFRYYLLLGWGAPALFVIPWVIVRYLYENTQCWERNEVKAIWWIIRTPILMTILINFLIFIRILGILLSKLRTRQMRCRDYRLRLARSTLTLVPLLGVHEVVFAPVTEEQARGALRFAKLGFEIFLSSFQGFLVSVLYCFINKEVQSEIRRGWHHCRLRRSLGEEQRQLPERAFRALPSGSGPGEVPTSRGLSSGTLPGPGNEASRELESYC


What was measured:
human GIP receptor [1] = molecular target: T1, human GIP receptor; test: cell-based or functional assay
human GIP receptor [2] = molecular target: T1, human GIP receptor; test: 125I-hGIP(1-42) competition binding, COS-7 cells expressing human GIPR, with 2% HSA;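 also: nonspecific signal taken as radioligand bound to untransfected cells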
Method: (§1) After incubation, the cells were washed twice in ice-cold binding buffer (+/−2% HSA) and lysed using 200 mM NaOH with 1% SDS for 30 min. Nonspecific binding was determined as the binding of radioactive ligand to untransfected cells.

human GIP receptor [3] = molecular target: T1, human GIP receptor; test: 125I-hGIP(1-42) competition binding, COS-7 cells expressing human GIPR, without HSA;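 also: nonspecific binding defined as radioligand bound to cells lacking the transfected receptor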
Method: as §1

human GIP receptor [4] = molecular target: T1, human GIP receptor; test: ratio of Ki with 2% HSA to Ki without HSA, 125I-hGIP competition binding on hGIPR COS-7 cells;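 also: nonspecific binding was defined as radioligand signal on cells lacking the receptor transfection, with cell lysates measured after washes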
Method: as §1

Binder	cAMP accumulation Fold (fold change from GIP(5-30)NH2) (human GIP receptor [1]) [fold]	cAMP accumulation IC50 (human GIP receptor [1]) [nM]	cAMP accumulation logIC50 (human GIP receptor [1])	Ki (human GIP receptor [2]) [nM]	Ki (human GIP receptor [3]) [nM]	Fold (Ki + HSA / Ki - HSA) (human GIP receptor [4]) [fold]
TFISDYSIAMDKIHQK(C16 diacid)DFVNWLLAQK-NH2 (N-terminus assumed; SMILES CC[C@H](C)[C@H](NC(=O)[C@H](CO)NC(=O)[C@H](Cc1ccc(O)cc1)NC(=O)[C@H](CC(=O)O)NC(=O)[C@H](CO)NC(=O)[C@@H](NC(=O)[C@H](Cc1ccccc1)NC(=O)[C@@H](N)[C@@H](C)O)[C@@H](C)CC)C(=O)N[C@@H](C)C(=O)N[C@@H](CCSC)C(=O)N[C@@H](CC(=O)O)C(=O)N[C@@H](CCCCN)C(=O)N[C@H](C(=O)N[C@@H](Cc1c[nH]cn1)C(=O)N[C@@H](CCC(N)=O)C(=O)N[C@@H](CCCCNC(=O)CCCCCCCCCCCCCCC(=O)O)C(=O)N[C@@H](CC(=O)O)C(=O)N[C@@H](Cc1ccccc1)C(=O)N[C@H](C(=O)N[C@@H](CC(N)=O)C(=O)N[C@@H](Cc1c[nH]c2ccccc12)C(=O)N[C@@H](CC(C)C)C(=O)N[C@@H](CC(C)C)C(=O)N[C@@H](C)C(=O)N[C@@H](CCC(N)=O)C(=O)N[C@@H](CCCCN)C(N)=O)C(C)C)[C@@H](C)CC) [AT180 [hGIP(5-30)NH2[Q20K]-C16diacid/20]]	1.7	46.8	-7.33 log(M)	533	82.8	6.4
TFISDYSIAMDKIHQQK(C16 diacid)FVNWLLAQK-NH2 (N-terminus assumed; SMILES CC[C@H](C)[C@H](NC(=O)[C@H](CO)NC(=O)[C@H](Cc1ccc(O)cc1)NC(=O)[C@H](CC(=O)O)NC(=O)[C@H](CO)NC(=O)[C@@H](NC(=O)[C@H](Cc1ccccc1)NC(=O)[C@@H](N)[C@@H](C)O)[C@@H](C)CC)C(=O)N[C@@H](C)C(=O)N[C@@H](CCSC)C(=O)N[C@@H](CC(=O)O)C(=O)N[C@@H](CCCCN)C(=O)N[C@H](C(=O)N[C@@H](Cc1c[nH]cn1)C(=O)N[C@@H](CCC(N)=O)C(=O)N[C@@H](CCC(N)=O)C(=O)N[C@@H](CCCCNC(=O)CCCCCCCCCCCCCCC(=O)O)C(=O)N[C@@H](Cc1ccccc1)C(=O)N[C@H](C(=O)N[C@@H](CC(N)=O)C(=O)N[C@@H](Cc1c[nH]c2ccccc12)C(=O)N[C@@H](CC(C)C)C(=O)N[C@@H](CC(C)C)C(=O)N[C@@H](C)C(=O)N[C@@H](CCC(N)=O)C(=O)N[C@@H](CCCCN)C(N)=O)C(C)C)[C@@H](C)CC) [AT181 [hGIP(5-30)NH2[D21K]-C16diacid/21]]	0.5	12.6	-7.9 log(M)	120	33.3	3.6
TFISDYSIAMDKIHQQDFVK(C16 diacid)WLLAQK-NH2 (N-terminus assumed; SMILES CC[C@H](C)[C@H](NC(=O)[C@H](CO)NC(=O)[C@H](Cc1ccc(O)cc1)NC(=O)[C@H](CC(=O)O)NC(=O)[C@H](CO)NC(=O)[C@@H](NC(=O)[C@H](Cc1ccccc1)NC(=O)[C@@H](N)[C@@H](C)O)[C@@H](C)CC)C(=O)N[C@@H](C)C(=O)N[C@@H](CCSC)C(=O)N[C@@H](CC(=O)O)C(=O)N[C@@H](CCCCN)C(=O)N[C@H](C(=O)N[C@@H](Cc1c[nH]cn1)C(=O)N[C@@H](CCC(N)=O)C(=O)N[C@@H](CCC(N)=O)C(=O)N[C@@H](CC(=O)O)C(=O)N[C@@H](Cc1ccccc1)C(=O)N[C@H](C(=O)N[C@@H](CCCCNC(=O)CCCCCCCCCCCCCCC(=O)O)C(=O)N[C@@H](Cc1c[nH]c2ccccc12)C(=O)N[C@@H](CC(C)C)C(=O)N[C@@H](CC(C)C)C(=O)N[C@@H](C)C(=O)N[C@@H](CCC(N)=O)C(=O)N[C@@H](CCCCN)C(N)=O)C(C)C)[C@@H](C)CC) [AT184 [hGIP(5-30)NH2[N24K]-C16diacid/24]]	3.9	107	-6.97 log(M)	871	224	3.9
TFISDYSIAMDKIHQQDFVNK(C16 diacid)LLAQK-NH2 (N-terminus assumed; SMILES CC[C@H](C)[C@H](NC(=O)[C@H](CO)NC(=O)[C@H](Cc1ccc(O)cc1)NC(=O)[C@H](CC(=O)O)NC(=O)[C@H](CO)NC(=O)[C@@H](NC(=O)[C@H](Cc1ccccc1)NC(=O)[C@@H](N)[C@@H](C)O)[C@@H](C)CC)C(=O)N[C@@H](C)C(=O)N[C@@H](CCSC)C(=O)N[C@@H](CC(=O)O)C(=O)N[C@@H](CCCCN)C(=O)N[C@H](C(=O)N[C@@H](Cc1c[nH]cn1)C(=O)N[C@@H](CCC(N)=O)C(=O)N[C@@H](CCC(N)=O)C(=O)N[C@@H](CC(=O)O)C(=O)N[C@@H](Cc1ccccc1)C(=O)N[C@H](C(=O)N[C@@H](CC(N)=O)C(=O)N[C@@H](CCCCNC(=O)CCCCCCCCCCCCCCC(=O)O)C(=O)N[C@@H](CC(C)C)C(=O)N[C@@H](CC(C)C)C(=O)N[C@@H](C)C(=O)N[C@@H](CCC(N)=O)C(=O)N[C@@H](CCCCN)C(N)=O)C(C)C)[C@@H](C)CC) [AT185 [hGIP(5-30)NH2[W25K]-C16diacid/25]]	2.4	66.1	-7.18 log(M)	336	67.1	5
TFISDYSIAMDKIHQQDFK(C16 diacid)NWLLAQK-NH2 (N-terminus assumed; SMILES CC[C@H](C)[C@H](NC(=O)[C@H](CO)NC(=O)[C@H](Cc1ccc(O)cc1)NC(=O)[C@H](CC(=O)O)NC(=O)[C@H](CO)NC(=O)[C@@H](NC(=O)[C@H](Cc1ccccc1)NC(=O)[C@@H](N)[C@@H](C)O)[C@@H](C)CC)C(=O)N[C@@H](C)C(=O)N[C@@H](CCSC)C(=O)N[C@@H](CC(=O)O)C(=O)N[C@@H](CCCCN)C(=O)N[C@H](C(=O)N[C@@H](Cc1c[nH]cn1)C(=O)N[C@@H](CCC(N)=O)C(=O)N[C@@H](CCC(N)=O)C(=O)N[C@@H](CC(=O)O)C(=O)N[C@@H](Cc1ccccc1)C(=O)N[C@@H](CCCCNC(=O)CCCCCCCCCCCCCCC(=O)O)C(=O)N[C@@H](CC(N)=O)C(=O)N[C@@H](Cc1c[nH]c2ccccc12)C(=O)N[C@@H](CC(C)C)C(=O)N[C@@H](CC(C)C)C(=O)N[C@@H](C)C(=O)N[C@@H](CCC(N)=O)C(=O)N[C@@H](CCCCN)C(N)=O)[C@@H](C)CC) [AT183 [hGIP(5-30)NH2[V23K]-C16diacid/23]]	55	1510	-5.82 log(M)	23300	5350	4.4
TFISDYSIAMDKIHQQDK(C16 diacid)VNWLLAQK-NH2 (N-terminus assumed; SMILES CC[C@H](C)[C@H](NC(=O)[C@H](CO)NC(=O)[C@H](Cc1ccc(O)cc1)NC(=O)[C@H](CC(=O)O)NC(=O)[C@H](CO)NC(=O)[C@@H](NC(=O)[C@H](Cc1ccccc1)NC(=O)[C@@H](N)[C@@H](C)O)[C@@H](C)CC)C(=O)N[C@@H](C)C(=O)N[C@@H](CCSC)C(=O)N[C@@H](CC(=O)O)C(=O)N[C@@H](CCCCN)C(=O)N[C@H](C(=O)N[C@@H](Cc1c[nH]cn1)C(=O)N[C@@H](CCC(N)=O)C(=O)N[C@@H](CCC(N)=O)C(=O)N[C@@H](CC(=O)O)C(=O)N[C@@H](CCCCNC(=O)CCCCCCCCCCCCCCC(=O)O)C(=O)N[C@H](C(=O)N[C@@H](CC(N)=O)C(=O)N[C@@H](Cc1c[nH]c2ccccc12)C(=O)N[C@@H](CC(C)C)C(=O)N[C@@H](CC(C)C)C(=O)N[C@@H](C)C(=O)N[C@@H](CCC(N)=O)C(=O)N[C@@H](CCCCN)C(N)=O)C(C)C)[C@@H](C)CC) [AT182 [hGIP(5-30)NH2[F22K]-C16diacid/22]]	21.9	603	-6.22 log(M)	1190	841	1.4
